Source: IntAct's records for PubMed 31515488

B1: DNA mismatch repair protein Mlh1 (Homo sapiens), P40692 (parent)
chain: MSFVAGVIRRLDETVVNRIAAGEVIQRPANAIKEMIENCLDAKSTSIQVIVKEGGLKLIQIQDNGTGIRKEDLDIVCERFTTSKLQSFEDLASISTYGFRGEALASISHVAHVTITTKTADGKCAYRASYSDGKLKAPPKPCAGNQGTQITVEDLFYNIATRRKALKNPSEEYGKILEVVGRYSVHNAGISFSVKKQGETVADVRTLPNASTVDNIRSIFGNAVSRELIEIGCEDKTLAFKMNGYISNANYSVKKCIFLLFINHRLVESTSLRKAIETVYAAYLPKNTHPFLYLSLEISPQNVDVNVHPTKHEVHFLHEESILERVQQHIESKLLGSNSSRMYFTQTLLPGLAGPSGEMVKSTTSLTSSSTSGSSDKVYAHQMVRTDSREQKLDAFLQPLSKPLSSQPQAIVTEDKTDISSGRARQQDEEMLELPAPAEVAAKNQSLEGDTTKGTSEMSEKRGPTSSNPRKRHREDSDVEMVEDDSRKEMTAACTPRRRIINLTSVLSLQEEINEQGHEVLREMLHNHSFVGCVNPQWALAQHQTKLYLLNTTKLSEELFYQILIYDFANFGVLRLSEPAPLFDLAMLALDSPESGWTEEDGPKEGLAEYIVEFLKKKAEMLADYFSLEIDEEGNLIGLPLLIDNYVPPLEGLPIFILRLATEVNWDEEKECFESLSKECAMFYSIRKQYISEESTLSGQQSEVPGSIPNSWKWTVEHIVYKALRSHILPPKHFTEDGNILQLANLPDLYKVFERC
partner: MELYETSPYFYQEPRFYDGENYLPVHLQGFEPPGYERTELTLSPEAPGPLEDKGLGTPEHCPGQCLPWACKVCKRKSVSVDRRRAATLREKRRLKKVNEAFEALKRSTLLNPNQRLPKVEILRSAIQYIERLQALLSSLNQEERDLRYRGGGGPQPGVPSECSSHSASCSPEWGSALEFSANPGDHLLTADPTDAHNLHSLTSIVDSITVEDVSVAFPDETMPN
B2: Membrane protein FAM174A (Homo sapiens), Q8TBP5 (parent)
chain: MKASQCCCCLSHLLASVLLLLLLPELSGPLAVLLQAAEAAPGLGPPDPRPRTLPPLPPGPTPAQQPGRGLAEAAGPRGSEGGNGSNPVAGLETDDHGGKAGEGSVGGGLAVSPNPGDKPMTQRALTVLMVVSGAVLVYFVVRTVRMRRRNRKTRRYGVLDTNIENMELTPLEQDDEDDDNTLFDANHPRR
partner: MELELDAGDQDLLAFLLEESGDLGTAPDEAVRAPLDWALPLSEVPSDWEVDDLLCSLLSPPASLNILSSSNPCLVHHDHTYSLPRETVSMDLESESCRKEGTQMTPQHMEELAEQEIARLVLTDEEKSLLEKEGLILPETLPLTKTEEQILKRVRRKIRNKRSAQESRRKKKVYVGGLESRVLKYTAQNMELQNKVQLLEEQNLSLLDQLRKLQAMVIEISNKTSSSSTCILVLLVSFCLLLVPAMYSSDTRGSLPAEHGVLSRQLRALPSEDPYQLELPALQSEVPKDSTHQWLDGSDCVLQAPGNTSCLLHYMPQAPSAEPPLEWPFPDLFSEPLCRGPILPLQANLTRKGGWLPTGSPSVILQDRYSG
B3: Protein DDI1 homolog 1 (Homo sapiens), Q8WTU0 (parent)
chain: MLITVYCVRRDLSEVTFSLQVSPDFELRNFKVLCEAESRVPVEEIQIIHMERLLIEDHCSLGSYGLKDGDIVVLLQKDNVGPRAPGRAPNQPRVDFSGIAVPGTSSSRPQHPGQQQQRTPAAQRSQGLASGEKVAGLQGLGSPALIRSMLLSNPHDLSLLKERNPPLAEALLSGSLETFSQVLMEQQREKALREQERLRLYTADPLDREAQAKIEEEIRQQNIEENMNIAIEEAPESFGQVTMLYINCKVNGHPLKAFVDSGAQMTIMSQACAERCNIMRLVDRRWAGVAKGVGTQRIIGRVHLAQIQIEGDFLQCSFSILEDQPMDMLLGLDMLRRHQCSIDLKKNVLVIGTTGTQTYFLPEGELPLCSRMVSGQDESSDKEITHSVMDSGRKEH
partner: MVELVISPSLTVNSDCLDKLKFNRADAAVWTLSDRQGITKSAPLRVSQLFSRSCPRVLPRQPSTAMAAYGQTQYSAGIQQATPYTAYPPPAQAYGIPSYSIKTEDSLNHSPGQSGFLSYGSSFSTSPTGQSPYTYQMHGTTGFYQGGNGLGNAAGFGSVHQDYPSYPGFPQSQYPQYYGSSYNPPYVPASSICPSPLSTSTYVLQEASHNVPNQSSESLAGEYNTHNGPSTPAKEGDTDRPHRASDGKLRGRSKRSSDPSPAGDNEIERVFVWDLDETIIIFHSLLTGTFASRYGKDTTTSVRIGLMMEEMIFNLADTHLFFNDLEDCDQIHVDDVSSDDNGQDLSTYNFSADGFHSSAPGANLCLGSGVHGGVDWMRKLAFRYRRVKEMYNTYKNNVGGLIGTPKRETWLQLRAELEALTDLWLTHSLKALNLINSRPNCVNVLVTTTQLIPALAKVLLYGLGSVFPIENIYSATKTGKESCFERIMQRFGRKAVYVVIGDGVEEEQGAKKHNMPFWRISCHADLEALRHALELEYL
B4: E3 ubiquitin-protein ligase MARCHF5 (Homo sapiens), Q9NX47 (parent)
chain: MPDQALQQMLDRSCWVCFATDEDDRTAEWVRPCRCRGSTKWVHQACLQRWVDEKQRGNSTARVACPQCNAEYLIVFPKLGPVVYVLDLADRLISKACPFAAAGIMVGSIYWTAVTYGAVTVMQVVGHKEGLDVMERADPLFLLIGLPTIPVMLILGKMIRWEDYVLRLWRKYSNKLQILNSIFPGIGCPVPRIPAEANPLADHVSATRILCGALVFPTIATIVGKLMFSSVNSNLQRTILGGIAFVAIKGAFKVYFKQQQYLRQAHRKILNYPEQEEA
B5: Histone-lysine N-methyltransferase SMYD1 (Homo sapiens), Q8NB12 (parent)
chain: MTIGRMENVEVFTAEGKGRGLKATKEFWAADIIFAERAYSAVVFDSLVNFVCHTCFKRQEKLHRCGQCKFAHYCDRTCQKDAWLNHKNECSAIKRYGKVPNENIRLAARIMWRVEREGTGLTEGCLVSVDDLQNHVEHFGEEEQKDLRVDVDTFLQYWPPQSQQFSMQYISHIFGVINCNGFTLSDQRGLQAVGVGIFPNLGLVNHDCWPNCTVIFNNGNHEAVKSMFHTQMRIELRALGKISEGEELTVSYIDFLNVSEERKRQLKKQYYFDCTCEHCQKKLKDDLFLGVKDNPKPSQEVVKEMIQFSKDTLEKIDKARSEGLYHEVVKLCRECLEKQEPVFADTNIYMLRMLSIVSEVLSYLQAFEEASFYARRMVDGYMKLYHPNNAQLGMAVMRAGLTNWHAGNIEVGHGMICKAYAILLVTHGPSHPITKDLEAMRVQTEMELRMFRQNEFMYYKMREAALNNQPMQVMAEPSNEPSPALFHKKQ
partner: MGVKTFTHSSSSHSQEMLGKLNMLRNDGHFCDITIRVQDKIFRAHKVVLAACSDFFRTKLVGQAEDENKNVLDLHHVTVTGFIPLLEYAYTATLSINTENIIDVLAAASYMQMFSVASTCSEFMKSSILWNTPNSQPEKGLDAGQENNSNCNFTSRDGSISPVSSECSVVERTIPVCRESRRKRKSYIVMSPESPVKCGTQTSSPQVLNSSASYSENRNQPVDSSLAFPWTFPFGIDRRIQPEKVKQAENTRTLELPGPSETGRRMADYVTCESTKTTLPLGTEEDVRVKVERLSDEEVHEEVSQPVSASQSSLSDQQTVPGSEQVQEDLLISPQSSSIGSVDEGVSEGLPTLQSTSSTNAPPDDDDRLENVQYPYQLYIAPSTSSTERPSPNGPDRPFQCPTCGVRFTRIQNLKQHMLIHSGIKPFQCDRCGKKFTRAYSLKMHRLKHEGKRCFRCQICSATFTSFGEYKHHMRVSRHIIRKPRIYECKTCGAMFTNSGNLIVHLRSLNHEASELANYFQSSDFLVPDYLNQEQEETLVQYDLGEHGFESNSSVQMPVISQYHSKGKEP
B6: E3 ubiquitin-protein ligase Midline-1 (Homo sapiens), O15344 (parent)
chain: METLESELTCPICLELFEDPLLLPCAHSLCFNCAHRILVSHCATNESVESITAFQCPTCRHVITLSQRGLDGLKRNVTLQNIIDRFQKASVSGPNSPSETRRERAFDANTMTSAEKVLCQFCDQDPAQDAVKTCVTCEVSYCDECLKATHPNKKPFTGHRLIEPIPDSHIRGLMCLEHEDEKVNMYCVTDDQLICALCKLVGRHRDHQVAALSERYDKLKQNLESNLTNLIKRNTELETLLAKLIQTCQHVEVNASRQEAKLTEECDLLIEIIQQRRQIIGTKIKEGKVMRLRKLAQQIANCKQCIERSASLISQAEHSLKENDHARFLQTAKNITERVSMATASSQVLIPEINLNDTFDTFALDFSREKKLLECLDYLTAPNPPTIREELCTASYDTITVHWTSDDEFSVVSYELQYTIFTGQANVVSLCNSADSWMIVPNIKQNHYTVHGLQSGTKYIFMVKAINQAGSRSSEPGKLKTNSQPFKLDPKSAHRKLKVSHDNLTVERDESSSKKSHTPERFTSQGSYGVAGNVFIDSGRHYWEVVISGSTWYAIGLAYKSAPKHEWIGKNSASWALCRCNNNWVVRHNSKEIPIEPAPHLRRVGILLDYDNGSIAFYDALNSIHLYTFDVAFAQPVCPTFTVWNKCLTIITGLPIPDHLDCTEQLP
B7: Epidermal growth factor receptor substrate 15-like 1 (Homo sapiens), Q9UBC2 (parent)
chain: MAAPLIPLSQQIPTGNSLYESYYKQVDPAYTGRVGASEAALFLKKSGLSDIILGKIWDLADPEGKGFLDKQGFYVALRLVACAQSGHEVTLSNLNLSMPPPKFHDTSSPLMVTPPSAEAHWAVRVEEKAKFDGIFESLLPINGLLSGDKVKPVLMNSKLPLDVLGRVWDLSDIDKDGHLDRDEFAVAMHLVYRALEKEPVPSALPPSLIPPSKRKKTVFPGAVPVLPASPPPKDSLRSTPSHGSVSSLNSTGSLSPKHSLKQTQPTVNWVVPVADKMRFDEIFLKTDLDLDGYVSGQEVKEIFMHSGLTQNLLAHIWALADTRQTGKLSKDQFALAMYFIQQKVSKGIDPPQVLSPDMVPPSERGTPGPDSSGSLGSGEFTGVKELDDISQEIAQLQREKYSLEQDIREKEEAIRQKTSEVQELQNDLDRETSSLQELEAQKQDAQDRLDEMDQQKAKLRDMLSDVRQKCQDETQMISSLKTQIQSQESDLKSQEDDLNRAKSELNRLQQEETQLEQSIQAGRVQLETIIKSLKSTQDEINQARSKLSQLHESRQEAHRSLEQYDQVLDGAHGASLTDLANLSEGVSLAERGSFGAMDDPFKNKALLFSNNTQELHPDPFQTEDPFKSDPFKGADPFKGDPFQNDPFAEQQTTSTDPFGGDPFKESDPFRGSATDDFFKKQTKNDPFTSDPFTKNPSLPSKLDPFESSDPFSSSSVSSKGSDPFGTLDPFGSGSFNSAEGFADFSQMSKPPPSGPFTSSLGGAGFSDDPFKSKQDTPALPPKKPAPPRPKPPSGKSTPVSQLGSADFPEAPDPFQPLGADSGDPFQSKKGFGDPFSGKDPFVPSSAAKPSKASASGFADFTSVS
partner: B2 partner

Variants of: B1
Settings: with myog_human MYOG

Row | effect of a mutation on the interaction | Variant
1 | with no effect | V213M
2 | with no effect | S406N
3 | with no effect | S106N
4 | with no effect | V384D
5 | with no effect | A441T
6 | with no effect | V326A

Variants of: B1
Settings: with myog_human MYOG
Remark: another data set of the same source

Row | effect of a mutation on the interaction | Variant
7 | with no effect | R69K

Variants of: B2
Settings: with creb3_human CREB3, O43889

Row | effect of a mutation on the interaction | Variant
8 | with no effect | D95G

Variants of: B3
Settings: with eya2_human EYA2, O00167

Row | Variant | effect of a mutation on the interaction
9 | G136S | with no effect
10 | R87C | with no effect
11 | R208G | with no effect
12 | S63A | with no effect

Results, then the variant that gave them:

Row | effect of a mutation on the interaction | Variant
13 | with no effect | D323N
14 | with no effect | N228T

Variants of: B4
Settings: with ube2w_human UBE2W

Row | effect of a mutation on the interaction | Variant
15 | with no effect | T20A
16 | with no effect | D202N

Variants of: B5
Settings: with zbt44_human ZBTB44, Q8NCP5

Row | effect of a mutation on the interaction | Variant
17 | with no effect | Q164P
18 | with no effect | H427L
19 | with no effect | R333Q

Variants of: B6
Settings: with meox1_human MEOX1, P50221
Sequence of meox1_human MEOX1, P50221 (P50221 whole entry): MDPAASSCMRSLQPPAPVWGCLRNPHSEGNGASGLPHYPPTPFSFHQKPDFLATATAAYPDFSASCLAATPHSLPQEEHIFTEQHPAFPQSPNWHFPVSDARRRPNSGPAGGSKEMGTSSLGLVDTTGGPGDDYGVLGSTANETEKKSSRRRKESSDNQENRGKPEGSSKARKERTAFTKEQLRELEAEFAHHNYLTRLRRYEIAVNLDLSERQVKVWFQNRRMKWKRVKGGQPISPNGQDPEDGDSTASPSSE

Row | effect of a mutation on the interaction | Variant
20 | with no effect | D84N

Variants of: B6
Settings: with echp_human EHHADH

Row | effect of a mutation on the interaction | Variant
21 | with no effect | D84N

Variants of: B6
Settings: with ub2d3_human UBE2D3, P61077
Sequence of ub2d3_human UBE2D3, P61077 (P61077 whole entry): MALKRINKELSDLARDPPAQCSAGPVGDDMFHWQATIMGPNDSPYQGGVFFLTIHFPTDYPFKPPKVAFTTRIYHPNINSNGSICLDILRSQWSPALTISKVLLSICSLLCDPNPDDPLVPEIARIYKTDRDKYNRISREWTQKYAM

Row | effect of a mutation on the interaction | Variant
22 | with no effect | D84N

Variants of: B6
Settings: with ub2e2_human UBE2E2, Q96LR5
Sequence of ub2e2_human UBE2E2, Q96LR5 (Q96LR5 whole entry): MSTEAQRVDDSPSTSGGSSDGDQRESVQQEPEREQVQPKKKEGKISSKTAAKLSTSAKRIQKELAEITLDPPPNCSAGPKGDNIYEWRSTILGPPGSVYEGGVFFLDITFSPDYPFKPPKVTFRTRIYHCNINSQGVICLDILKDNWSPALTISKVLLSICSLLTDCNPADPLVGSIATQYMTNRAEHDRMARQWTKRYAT

Row | effect of a mutation on the interaction | Variant
23 | with no effect | D84N

Variants of: B7
Settings: with creb3_human CREB3, O43889

Row | effect of a mutation on the interaction | Variant
24 | with no effect | P356L
